Values of other authors, collected in article PMC10810742.

Biological target: Ubiquitin (Homo sapiens) (UniProt P0CG47)

Chain of CteC (Q7NY09 whole entry): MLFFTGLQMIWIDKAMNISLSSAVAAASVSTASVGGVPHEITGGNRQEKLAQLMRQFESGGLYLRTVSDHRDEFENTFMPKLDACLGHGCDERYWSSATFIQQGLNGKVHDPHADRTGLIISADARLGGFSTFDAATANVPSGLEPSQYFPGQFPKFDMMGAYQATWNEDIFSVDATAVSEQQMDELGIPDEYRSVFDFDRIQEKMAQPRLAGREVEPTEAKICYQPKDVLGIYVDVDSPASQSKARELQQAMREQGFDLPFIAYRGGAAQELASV

CteC (from UniProt Q7NY09)
Kd: 78.7 µM
